Data: article PMC5291270

Key:
[1] = target: T1, Flag-SA1 WT (UniProt Q8WVM7); assay: AFM; details: scale: % of SA1 bound at same locations as telomeric region
T1 sequence: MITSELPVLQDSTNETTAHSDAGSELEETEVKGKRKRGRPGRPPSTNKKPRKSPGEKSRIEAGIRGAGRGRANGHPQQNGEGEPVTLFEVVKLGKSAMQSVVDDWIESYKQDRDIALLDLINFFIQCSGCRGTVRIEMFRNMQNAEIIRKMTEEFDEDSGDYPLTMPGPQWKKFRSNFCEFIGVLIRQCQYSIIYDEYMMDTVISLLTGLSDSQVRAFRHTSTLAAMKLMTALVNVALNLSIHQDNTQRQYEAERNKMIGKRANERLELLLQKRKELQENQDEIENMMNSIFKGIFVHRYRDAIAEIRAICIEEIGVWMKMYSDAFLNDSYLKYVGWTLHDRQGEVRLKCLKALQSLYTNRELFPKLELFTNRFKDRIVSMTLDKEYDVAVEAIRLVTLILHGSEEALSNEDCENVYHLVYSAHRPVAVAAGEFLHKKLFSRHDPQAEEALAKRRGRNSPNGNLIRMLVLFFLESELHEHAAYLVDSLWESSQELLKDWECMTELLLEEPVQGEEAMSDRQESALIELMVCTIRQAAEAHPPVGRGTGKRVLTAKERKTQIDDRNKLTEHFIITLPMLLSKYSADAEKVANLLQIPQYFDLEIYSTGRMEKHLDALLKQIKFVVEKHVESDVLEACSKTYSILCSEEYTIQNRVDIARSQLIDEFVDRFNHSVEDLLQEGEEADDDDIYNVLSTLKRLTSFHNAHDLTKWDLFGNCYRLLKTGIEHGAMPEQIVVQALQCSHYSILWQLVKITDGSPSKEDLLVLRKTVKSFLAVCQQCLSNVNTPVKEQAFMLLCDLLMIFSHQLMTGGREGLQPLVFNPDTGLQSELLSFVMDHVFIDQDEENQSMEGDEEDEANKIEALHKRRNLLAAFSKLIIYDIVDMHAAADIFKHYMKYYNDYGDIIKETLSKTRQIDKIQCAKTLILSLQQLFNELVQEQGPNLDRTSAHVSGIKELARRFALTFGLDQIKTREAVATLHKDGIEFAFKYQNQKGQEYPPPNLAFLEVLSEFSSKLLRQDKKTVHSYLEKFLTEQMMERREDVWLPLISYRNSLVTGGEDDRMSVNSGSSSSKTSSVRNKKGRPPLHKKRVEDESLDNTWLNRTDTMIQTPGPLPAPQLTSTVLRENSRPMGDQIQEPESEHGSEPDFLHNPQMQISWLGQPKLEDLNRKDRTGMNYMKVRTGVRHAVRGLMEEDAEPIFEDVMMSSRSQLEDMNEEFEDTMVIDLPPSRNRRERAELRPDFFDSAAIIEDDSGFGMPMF

[2] = target: T2, Flag-SA1 WT (UniProt Q8WVM7 1-1258); assay: fluorescence anisotropy
T2 sequence: T1 sequence

[3] = target: TRF1;SA1 (EMSA with TRF1) (human?;human?, UniProt P54274;Q8WVM7 1-439;1-1258, |); assay: EMSA
Chain of TRF1;SA1 (EMSA with TRF1) (P54274 whole entry, one chain of several): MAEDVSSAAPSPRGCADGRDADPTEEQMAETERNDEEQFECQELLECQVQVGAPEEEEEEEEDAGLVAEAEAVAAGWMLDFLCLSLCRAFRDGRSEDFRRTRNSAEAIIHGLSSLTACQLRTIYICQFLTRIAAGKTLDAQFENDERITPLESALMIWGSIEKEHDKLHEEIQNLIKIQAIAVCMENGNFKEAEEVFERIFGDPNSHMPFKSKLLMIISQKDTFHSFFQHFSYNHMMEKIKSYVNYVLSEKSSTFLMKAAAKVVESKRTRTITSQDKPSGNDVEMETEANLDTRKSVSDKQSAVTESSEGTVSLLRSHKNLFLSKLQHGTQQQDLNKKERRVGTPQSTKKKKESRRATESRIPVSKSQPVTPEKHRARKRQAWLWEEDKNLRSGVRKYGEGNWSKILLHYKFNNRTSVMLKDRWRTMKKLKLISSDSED

genomic control DNA gave a binding signal [1] of 27.

B1: Scram (scrambled Tel7) (dsDNA)
DNA 1: CTGGATCCGTACAGTGTAAGGGTGAGTGGTTGGGTGTGTGGGTGTTGATGTAGAACAAGAATTCGA
DNA 2: TCGAATTCTTGTTCTACATCAACACCCACACACCCAACCACTCACCCTTACACTGTACGGATCCAG
B1 was tested, and the Kd [2] was 104 ± 13.6 nM.

B2: 3x TTAGGG EMSA duplex (dsDNA)
DNA 1: TTAGGGTTAGGGTTAGGGATGTCCAGCAAGCCAGAATTCGGCAGCGTA
DNA 2: TACGCTGCCGAATTCTGGCTTGCTGGACATCCCTAACCCTAACCCTAA
B2: binds [3].

B3: Tel7 (7 TTAGGG repeats) (dsDNA)
DNA 1: CTGGATCCGTACTTAGGGTTAGGGTTAGGGTTAGGGTTAGGGTTAGGGTTAGGGACAAGAATTCGA
DNA 2: TCGAATTCTTGTCCCTAACCCTAACCCTAACCCTAACCCTAACCCTAACCCTAAGTACGGATCCAG
With B3 the Kd [2] was 34 ± 5.8 nM.
